The text below walks through data of publication PMC6525239, “Hexameric NuMA:LGN structures promote multivalent interactions required for planar epithelial divisions” (Nature Communications, 2019).

Series [1] concerns the target αβ-tubulin hetero-dimers (UniProt P02554 1-445). Kind of series: SEC; Superdex-200 Increase 3.2/300; 26 µM NuMA^2002–2115 and 20 µM αβ-tubulin hetero-dimers; GT buffer (80 mM PIPES pH 6.8, 1 mM MgCl2, 1 mM EGTA) with 60 mM NaCl and 1 mM DTT; Tris-Tricine-SDS-PAGE. Particulars: both partners purified.
Series [2] deals with the molecule itself. The experiment in a line: SEC-MALS; static light scattering (SLS) on a Viscotek GPCmax/TDA with two TSKgel G3000PWxl columns in series; 75 μl of purified sample at about 1.5–2 mg/ml. A general note: Size exclusion chromatography separates by hydrodynamic size, large species first.
Series [3] deals with T1, LGN^7–367 (human).
T1 sequence (P81274 whole entry, looked up): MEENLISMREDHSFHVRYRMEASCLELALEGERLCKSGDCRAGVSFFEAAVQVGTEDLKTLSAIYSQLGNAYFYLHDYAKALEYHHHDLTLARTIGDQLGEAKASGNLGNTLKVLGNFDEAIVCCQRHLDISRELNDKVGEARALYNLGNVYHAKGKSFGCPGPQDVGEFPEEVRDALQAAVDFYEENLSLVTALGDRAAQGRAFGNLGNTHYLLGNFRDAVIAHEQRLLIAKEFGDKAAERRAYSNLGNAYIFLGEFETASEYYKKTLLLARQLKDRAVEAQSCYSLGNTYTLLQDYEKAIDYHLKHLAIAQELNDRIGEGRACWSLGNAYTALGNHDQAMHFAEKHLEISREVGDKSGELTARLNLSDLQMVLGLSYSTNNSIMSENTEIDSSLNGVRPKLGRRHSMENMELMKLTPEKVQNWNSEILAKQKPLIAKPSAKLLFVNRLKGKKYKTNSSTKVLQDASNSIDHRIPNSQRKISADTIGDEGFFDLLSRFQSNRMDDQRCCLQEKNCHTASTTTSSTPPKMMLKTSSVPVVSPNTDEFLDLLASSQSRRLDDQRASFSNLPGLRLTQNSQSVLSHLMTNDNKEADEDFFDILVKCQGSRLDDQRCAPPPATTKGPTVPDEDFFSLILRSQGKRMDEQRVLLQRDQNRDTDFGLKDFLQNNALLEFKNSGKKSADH
The description is as above.

Series [4] concerns the target T2, LGN^13–409 (human).
T2 sequence (P81274 whole entry, looked up): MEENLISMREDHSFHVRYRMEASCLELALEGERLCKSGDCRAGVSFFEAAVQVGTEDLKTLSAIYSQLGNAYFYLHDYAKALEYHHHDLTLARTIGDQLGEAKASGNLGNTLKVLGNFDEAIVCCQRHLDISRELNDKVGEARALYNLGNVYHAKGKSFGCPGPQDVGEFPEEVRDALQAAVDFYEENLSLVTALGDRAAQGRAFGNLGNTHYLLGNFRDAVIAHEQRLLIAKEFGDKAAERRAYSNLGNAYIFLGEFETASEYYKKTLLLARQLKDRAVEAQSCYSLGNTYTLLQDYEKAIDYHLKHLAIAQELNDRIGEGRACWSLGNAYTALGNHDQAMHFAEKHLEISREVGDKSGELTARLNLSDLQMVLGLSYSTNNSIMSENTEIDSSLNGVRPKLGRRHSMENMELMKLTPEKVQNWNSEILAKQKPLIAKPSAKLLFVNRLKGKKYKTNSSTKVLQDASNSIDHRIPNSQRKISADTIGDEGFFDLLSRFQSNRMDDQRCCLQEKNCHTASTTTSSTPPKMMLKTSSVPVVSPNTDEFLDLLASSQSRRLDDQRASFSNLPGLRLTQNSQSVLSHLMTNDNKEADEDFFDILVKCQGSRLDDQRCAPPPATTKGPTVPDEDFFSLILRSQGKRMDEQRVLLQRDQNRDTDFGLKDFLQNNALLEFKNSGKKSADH
Kind of series: SEC + SEC-MALS; SEC and SLS assays on a battery of truncated LGN and NuMA mutants (Fig. 1c, d).

Series [5] addresses T3, LGN^1–350 (human).
T3 sequence (P81274 whole entry, looked up): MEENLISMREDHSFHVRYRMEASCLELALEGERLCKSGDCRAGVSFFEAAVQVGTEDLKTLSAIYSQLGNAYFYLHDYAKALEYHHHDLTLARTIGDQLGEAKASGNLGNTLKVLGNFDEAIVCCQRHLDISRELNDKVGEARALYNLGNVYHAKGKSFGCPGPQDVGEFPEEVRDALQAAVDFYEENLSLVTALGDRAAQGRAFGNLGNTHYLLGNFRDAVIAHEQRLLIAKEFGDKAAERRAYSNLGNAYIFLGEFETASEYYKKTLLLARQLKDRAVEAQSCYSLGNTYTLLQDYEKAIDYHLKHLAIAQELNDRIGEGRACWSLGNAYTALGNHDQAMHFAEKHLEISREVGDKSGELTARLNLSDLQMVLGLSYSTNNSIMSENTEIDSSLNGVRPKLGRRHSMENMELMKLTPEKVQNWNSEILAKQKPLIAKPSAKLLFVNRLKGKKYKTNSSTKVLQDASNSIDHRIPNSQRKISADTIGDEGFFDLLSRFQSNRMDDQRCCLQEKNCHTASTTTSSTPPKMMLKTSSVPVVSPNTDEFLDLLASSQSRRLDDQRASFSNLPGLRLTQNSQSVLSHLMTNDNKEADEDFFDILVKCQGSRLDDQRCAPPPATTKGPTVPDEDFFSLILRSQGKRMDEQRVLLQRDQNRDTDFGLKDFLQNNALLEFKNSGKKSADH
The description is as above.

The target in series [6] is LGN^TPR-ΔOLIGO (LGN^13–350) (human). Kind of series: SEC-MALS; static light scattering (SLS) on a Viscotek GPCmax/TDA with two TSKgel G3000PWxl columns in series; 75 μl of purified sample at about 1.5–2 mg/ml.
In series [7] the target is T4, LGN^1–409 (TPR domain of LGN) (human).
T4 sequence (P81274 whole entry, looked up): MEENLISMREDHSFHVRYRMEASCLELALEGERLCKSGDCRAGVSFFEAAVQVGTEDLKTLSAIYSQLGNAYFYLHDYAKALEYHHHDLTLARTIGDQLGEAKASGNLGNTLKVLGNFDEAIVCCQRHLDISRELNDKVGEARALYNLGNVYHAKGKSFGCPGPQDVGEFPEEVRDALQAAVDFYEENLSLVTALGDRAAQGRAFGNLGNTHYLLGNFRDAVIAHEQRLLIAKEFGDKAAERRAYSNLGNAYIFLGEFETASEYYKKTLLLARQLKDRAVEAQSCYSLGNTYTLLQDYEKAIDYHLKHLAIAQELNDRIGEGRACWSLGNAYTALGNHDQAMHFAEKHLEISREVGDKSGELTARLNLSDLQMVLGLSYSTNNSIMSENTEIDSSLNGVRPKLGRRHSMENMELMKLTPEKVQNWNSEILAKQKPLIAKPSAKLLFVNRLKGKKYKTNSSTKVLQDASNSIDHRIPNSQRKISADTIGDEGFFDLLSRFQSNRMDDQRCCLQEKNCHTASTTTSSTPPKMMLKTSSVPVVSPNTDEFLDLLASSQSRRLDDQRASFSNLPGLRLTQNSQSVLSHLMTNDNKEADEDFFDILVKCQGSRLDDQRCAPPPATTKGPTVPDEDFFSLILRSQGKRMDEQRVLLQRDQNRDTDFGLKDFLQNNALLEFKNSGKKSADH
The experiment in a line: SEC; analytical SEC, Superdex-200 Increase 3.2/300; LGN and NuMA variants mixed in equimolar amounts (20 μM; LGN^TPR:NuMA^PEPT 1:2); 20 mM Tris-HCl pH 8.0, 0.150 M NaCl, 5% glycerol, 1 mM DTT; fractions checked by SDS-PAGE.

αβ-tubulin hetero-dimers, sequence (P68363 whole entry, chain 1 of 2): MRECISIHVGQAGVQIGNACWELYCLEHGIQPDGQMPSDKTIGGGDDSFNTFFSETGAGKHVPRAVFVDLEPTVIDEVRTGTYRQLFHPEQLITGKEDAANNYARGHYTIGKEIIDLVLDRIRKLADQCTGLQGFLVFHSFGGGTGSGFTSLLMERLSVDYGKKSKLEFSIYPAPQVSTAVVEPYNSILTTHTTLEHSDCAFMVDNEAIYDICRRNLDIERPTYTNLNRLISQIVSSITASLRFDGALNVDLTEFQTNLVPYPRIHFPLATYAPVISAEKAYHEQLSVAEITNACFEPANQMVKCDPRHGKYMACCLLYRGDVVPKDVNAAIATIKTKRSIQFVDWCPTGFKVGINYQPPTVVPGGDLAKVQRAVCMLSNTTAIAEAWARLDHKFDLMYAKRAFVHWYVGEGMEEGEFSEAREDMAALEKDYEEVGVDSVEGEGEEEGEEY
αβ-tubulin hetero-dimers, sequence (P02554 whole entry, chain 2 of 2): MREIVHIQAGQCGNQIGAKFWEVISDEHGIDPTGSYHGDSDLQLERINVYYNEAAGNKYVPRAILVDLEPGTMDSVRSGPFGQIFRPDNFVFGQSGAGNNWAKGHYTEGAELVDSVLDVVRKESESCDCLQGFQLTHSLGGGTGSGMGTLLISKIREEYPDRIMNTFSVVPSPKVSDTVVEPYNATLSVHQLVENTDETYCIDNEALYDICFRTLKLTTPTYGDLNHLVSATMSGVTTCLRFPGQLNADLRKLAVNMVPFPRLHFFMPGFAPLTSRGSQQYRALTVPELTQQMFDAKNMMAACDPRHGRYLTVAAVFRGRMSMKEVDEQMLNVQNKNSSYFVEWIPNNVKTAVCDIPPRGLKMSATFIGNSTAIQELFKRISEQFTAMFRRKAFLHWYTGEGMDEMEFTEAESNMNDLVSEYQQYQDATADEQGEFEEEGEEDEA

B1: NuMA^2002–2115 (domain or fragment, human, UniProt Q14980 2002-2115, looked up)
chain: ESKKATSCFPRPMTPRDRHEGRKQSTTEAQKKAAPASTKQADRRQSMAFSILNTPKKLGNSLLRRGASKKALSKASPNTRSGTRRSPRIATTTASAATAAAIGATPRAKGKAKH
As for B1, the “stoichiometry N” value in series [1] worked out at 1.

B2: NuMA^1592–1694 (domain or fragment, human, UniProt Q14980 1592-1694, looked up)
chain: QLNELQAQLSQKEQAAEHYKLQMEKAKTHYDAKKQQNQELQEQLRSLEQLQKENKELRAEAERLGHELQQAGLKTKEAEQTCRHLTAQVRSLEAQVAHADQQL
notes: NuMA, human, residues 1592-1694 (C-terminal portion of the coiled coil); also called C-terminal part of the NuMA coiled-coil
For B2, in series [2], the “stoichiometry N” value was found to be 2.

B3: NuMA^1861–1928 (domain or fragment)
chain: GSPDYGNSALLSLPGYRPTTRSSARRSQAGVSSGAPPGRNSFYMGTCQDEPEQLDDWNRIAELQQRNR
On to B3, for which the stoichiometry N in series [3], in series [4] and in series [5] was 1 each time.

B4: NuMA chimera (NuMA 1592–1694 joined to NuMA 1821–2001 by eight Thr-Gly-Ser repeats) (domain or fragment, human)
chain: QLNELQAQLSQKEQAAEHYKLQMEKAKTHYDAKKQQNQELQEQLRSLEQLQKENKELRAEAERLGHELQQAGLKTKEAEQTCRHLTAQVRSLEAQVAHADQQLTGSTGSTGSTGSTGSTGSTGSTGSKKLDVEEPDSANSSFYSTRSAPASQASLRATSSTQSLARLGSPDYGNSALLSLPGYRPTTRSSARRSQAGVSSGAPPGRNSFYMGTCQDEPEQLDDWNRIAELQQRNRVCPPHLKTCYPLESRPSLSLGTITDEEMKTGDPQETLRRASMQPIQIAEGTGITTRQQRKRVSLEPHQGPGTP
notes: NuMA, human, residues 1592-1694 (dimerizing coiled-coil); also called chimeric NuMA construct; source: E. coli BL21 Rosetta, purified (Ni HiTrap chelating, PreScission cleavage, Resource-Q, Superose-6)
With B4, the stoichiometry N in series [6] turned out to be 1; in series [2], 2.

Take NSFYMGTCQDEPEQLDDWNRIAELQQRNR [NuMA^1900–1928]: the stoichiometry N in series [7] was determined as 1.

Broadly, the stoichiometry N is a count of units in the complex or per binding partner.
